For assay [1], the target named is E. coli sigma^70 (E. coli) (UniProt P00579).
The target in assay [2] is Salmonella typhimurium sigma^70, purified (Salmonella typhimurium) (UniProt P0A2E3).
Assay [3] has as its target E. coli core RNA polymerase (E. coli) (UniProt P0A7Z4).

With “AsiA protein (10 kDa anti-sigma^70 factor of bacteriophage T4), purified”, the E. coli RNA polymerase assay (sigma^70 dependent transcription on T4 phage DNA) in assay [1] is more than 80 % inhibited. In assay [2], the RNA polymerase activity, [^3 H]UTP (nmol), after adding S. typhimurium sigma^70 to E. coli RNA polymerase inhibited by AsiA ([^3 H]UTP (nmol)) was determined as 3 and the RNA polymerase activity, [^3 H]UTP (nmol), with sigma^70 preincubated with AsiA ([^3 H]UTP (nmol)) was found to be 0.98.

“Salmonella typhimurium sigma^70, purified (from UniProt P0A2E3)” returned an RNA polymerase activity, [^3 H]UTP (nmol) ([^3 H]UTP (nmol)) in assay [3] of 2.3.

The values above are taken from patent publication US6030777.
